Columns and labels:
[1] = target: T1, extracellular domain of CD47 fused to a His(×6)-Avi-tag (Homo sapiens, UniProt Q08722); assay: ELISA; CD47-ECD coated on plates; serial dilutions of phage-scFvs, detected with anti-M13-HRP; pH 7.4 and pH 6.0; conditions: one partner purified
T1 construct: CD47, extracellular domain; also called CD47-ECD

[2] = target: T1, extracellular domain of CD47 fused to a …; assay: ELISA; CD47-ECD coated on plates; phage-scFv site saturation mutants of BC31M4, detected with anti-M13-HRP; pH 6.5 and pH 7.4; conditions: one partner purified
[3] = target: T1, extracellular domain of CD47 fused to a …; assay: ELISA; CD47-ECD coated on plates; serial dilutions of BC31M4 mutants in hIgG1 form; pH 7.4 and pH 6.8; conditions: both partners purified
[4] = target: T1, extracellular domain of CD47 fused to a …; assay: SPR; Biacore T200, 25 °C; anti-human IgG immobilised on a CM5 chip, antibodies (hIgG1 form) captured, twofold serially diluted CD47-ECD injected; pH 6.8 buffer; 1:1 binding model; conditions: both partners purified
[5] = target: T1, extracellular domain of CD47 fused to a …; assay: SPR; Biacore T200, 25 °C; anti-human IgG immobilised on a CM5 chip, antibodies (hIgG1 form) captured, twofold serially diluted CD47-ECD injected; pH 7.4 buffer; 1:1 binding model; conditions: both partners purified
[6] = target: T2, full-length human CD47 stably expressed on CHO cells (CHO-hCD47) (human, UniProt Q08722); assay: flow cytometry on cells; blocking assay of BC27: serially diluted antibody incubated with cells in the presence of bio-SIRPα-Fc, detected with streptavidin-FITC; pH 6.0, 6.5, 6.9 and 7.4; up to 1 µM antibody; conditions: one partner purified
T2 construct: full-length human CD47, stably expressed on CHO cells; also called CHO-CD47; cell-surface CD47; source: CHO cells, stably expressing, on cells
T2 sequence (Q08722 19-323): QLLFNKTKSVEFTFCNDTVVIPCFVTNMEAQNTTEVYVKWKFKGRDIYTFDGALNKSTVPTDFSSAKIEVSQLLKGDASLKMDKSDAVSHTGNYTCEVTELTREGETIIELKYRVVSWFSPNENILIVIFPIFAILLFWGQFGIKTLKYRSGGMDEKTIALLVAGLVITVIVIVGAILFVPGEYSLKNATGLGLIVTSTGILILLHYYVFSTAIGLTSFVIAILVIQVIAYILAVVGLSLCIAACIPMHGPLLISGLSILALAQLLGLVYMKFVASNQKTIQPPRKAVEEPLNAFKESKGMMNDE

[7] = target: T3, cell-surface CD47 on Raji, Jurkat and MDA-231 tumor cells (human (endogenous in Raji, Jurkat, …, UniProt Q08722)); assay: flow cytometry on cells; serially diluted antibodies (hIgG1 form) incubated with CHO-CD47 or tumor cells, detected with goat anti-human IgG-FITC; pH 6.8 and pH 7.4 separately; conditions: one partner purified
T3 construct: CD47 endogenous on human tumor cell lines
T3 sequence (Q08722 19-323): as above

[8] = target: T2, full-length human CD47 stably expressed …; assay: as above; conditions: one partner purified

T1 sequence (Q08722 whole entry, looked up, the tested form may be a part): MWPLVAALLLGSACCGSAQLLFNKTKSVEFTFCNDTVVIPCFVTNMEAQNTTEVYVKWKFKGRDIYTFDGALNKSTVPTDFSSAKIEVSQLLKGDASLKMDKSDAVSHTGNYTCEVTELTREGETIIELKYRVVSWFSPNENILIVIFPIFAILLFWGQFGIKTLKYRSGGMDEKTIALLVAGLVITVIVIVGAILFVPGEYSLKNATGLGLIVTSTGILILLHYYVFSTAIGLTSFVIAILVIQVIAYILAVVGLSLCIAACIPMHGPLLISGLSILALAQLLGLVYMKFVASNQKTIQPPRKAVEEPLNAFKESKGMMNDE

B1: BC27 (phage-scFv form) (scFv, V domains shown)
VH: QVQLVQSGAEVKKPGASVKVSCKASGYTFTSYGISWVRQAPGQGLEWMGWISAYNGNTNYAQKLQGRVTMTTDTSTSTAYMELRSLRSDDTAVYYCARGKVYFDYWGQGTLVTVSS
VL: EIVLTQSPATLSLSPGERATLSCRASQSLSRNHLAWYQQKPGQPPRLLIHWASTRESGVPDRFSGSGSGTDFTLTISSLQAEDVAVYYCQQYYTASWTFGQGTKVEIK
notes: VH of BC27: as the variable region of the heavy chain of m6 (PDB 7WN8) except in HCDR3; scFv linker of the library; VL of BC27: as the variable region of the light chain of m6 (PDB 7WN8) except in LCDR3
B1: binds [1].

B2: BC31M4 (phage-scFv form), wild type (scFv, V domains shown)
VH: QVQLVQSGAEVKKPGASVKVSCKASGYTFTSYGISWVRQAPGQGLEWMGWISAYNGNTNYAQKLQGRVTMTTDTSTSTAYMELRSLRSDDTAVYYCARGAVYFDYWGQGTLVTVSS
VL: EIVLTQSPATLSLSPGERATLSCRASQSLSRNHLAWYQQKPGQPPRLLIHWASTRESGVPDRFSGSGSGTDFTLTISSLQAEDVAVYYCQQHTQNTWTFGQGTKVEIK
notes: VH of BC31M4: as the variable region of the heavy chain of m6 (PDB 7WN8) with A instead of T at residue 108 of HCDR3 (IMGT numbering); scFv linker; VL of BC31M4: as the variable region of the light chain of m6 (PDB 7WN8); also called wild-type BC31M4
B2: binds [2].

B3: BC31M4 (hIgG1 form) with the 55R/107R substitution (antibody, V domains shown)
VH: QVQLVQSGAEVKKPGASVKVSCKASGYTFTSYGISWVRQAPGQGLEWMGWISAYNGNTNYAQKLQGRVTMTTDTSTSTAYMELRSLRSDDTAVYYCARGAVYFDYWGQGTLVTVSS
VL: EIVLTQSPATLSLSPGERATLSCRASQSLSRNHLAWYQQKPGQPPRLLIRWASTRESGVPDRFSGSGSGTDFTLTISSLQAEDVAVYYCQQRTQNTWTFGQGTKVEIK
notes: VH of BC31M4: as the variable region of the heavy chain of m6 (PDB 7WN8) with A instead of T at residue 108 of HCDR3 (IMGT numbering); constant region of the human IgG1 heavy chain (from the expression vector); VL of BC31M4 (as the variable region of the light chain of m6, PDB 7WN8) with histidine-to-arginine substitutions, IMGT numbering; constant region of the light chain from the hIgG1 …
B3: binds [3].

B4: BC31M5 (hIgG1 form) (antibody, V domains shown)
VH: QVQLVQSGAEVKKPGASVKVSCKASGYTFTSYGISWVRQAPGQGLEWMGWISAYNGNTNYAQKLQGRVTMTTDTSTSTAYMELRSLRSDDTAVYYCARGTVYFDYWGQGTLVTVSS
VL: EIVLTQSPATLSLSPGERATLSCRASQSLSRNHLAWYQQKPGQPPRLLIHWASTRESGVPDRFSGSGSGTDFTLTISSLQAEDVAVYYCQQHTQNTWTFGQGTKVEIK
notes: VH of BC31M5: as the variable region of the heavy chain of m6 (PDB 7WN8); constant region of the human IgG1 heavy chain (from the expression vector); VL of BC31M5: as the variable region of the light chain of m6 (PDB 7WN8); constant region of the light chain from the hIgG1 light-chain vector; IgG1
In the case of B4, the “fold higher binding affinity than BC31M4 at pH 6.8” value [4] is reported as roughly 3 fold and the “pH-dependence (ratio of KD at pH 7.4 to KD at pH 6.8)” value [5] is reported as roughly 1.9 fold.

B5: BC31M4 (phage-scFv form) with VL H38 replaced by arginine (scFv, V domains shown)
VH: QVQLVQSGAEVKKPGASVKVSCKASGYTFTSYGISWVRQAPGQGLEWMGWISAYNGNTNYAQKLQGRVTMTTDTSTSTAYMELRSLRSDDTAVYYCARGAVYFDYWGQGTLVTVSS
VL: EIVLTQSPATLSLSPGERATLSCRASQSLSRNRLAWYQQKPGQPPRLLIHWASTRESGVPDRFSGSGSGTDFTLTISSLQAEDVAVYYCQQHTQNTWTFGQGTKVEIK
notes: VH of BC31M4: as the variable region of the heavy chain of m6 (PDB 7WN8) with A instead of T at residue 108 of HCDR3 (IMGT numbering); scFv linker; VL of BC31M4 (as the variable region of the light chain of m6, PDB 7WN8) with H38 (LCDR1, IMGT numbering) changed
B5: binds [2].

B6: BC27 (hIgG1 form) (antibody, V domains shown)
VH: QVQLVQSGAEVKKPGASVKVSCKASGYTFTSYGISWVRQAPGQGLEWMGWISAYNGNTNYAQKLQGRVTMTTDTSTSTAYMELRSLRSDDTAVYYCARGKVYFDYWGQGTLVTVSS
VL: EIVLTQSPATLSLSPGERATLSCRASQSLSRNHLAWYQQKPGQPPRLLIHWASTRESGVPDRFSGSGSGTDFTLTISSLQAEDVAVYYCQQYYTASWTFGQGTKVEIK
notes: VH of BC27, parent of BC31M4 and BC31M5: as the variable region of the heavy chain of m6 (PDB 7WN8) except in HCDR3; constant region of the human IgG1 heavy chain (from the expression vector); VL of BC27: as the variable region of the light chain of m6 (PDB 7WN8) except in LCDR3; constant region of the light chain from the hIgG1 light-chain vector; IgG1; Random mutations were introduced only into …
B6: binds [6].

B7: BC31M4 (phage-scFv form) with VL H107 replaced by arginine (scFv, V domains shown)
VH: QVQLVQSGAEVKKPGASVKVSCKASGYTFTSYGISWVRQAPGQGLEWMGWISAYNGNTNYAQKLQGRVTMTTDTSTSTAYMELRSLRSDDTAVYYCARGAVYFDYWGQGTLVTVSS
VL: EIVLTQSPATLSLSPGERATLSCRASQSLSRNHLAWYQQKPGQPPRLLIHWASTRESGVPDRFSGSGSGTDFTLTISSLQAEDVAVYYCQQRTQNTWTFGQGTKVEIK
notes: VH of BC31M4: as the variable region of the heavy chain of m6 (PDB 7WN8) with A instead of T at residue 108 of HCDR3 (IMGT numbering); scFv linker; VL of BC31M4 (as the variable region of the light chain of m6, PDB 7WN8) with H107 (LCDR3, IMGT numbering) changed
B7: binds [2].

B8: BC31M4 (phage-scFv form) with VL H107 replaced by lysine (scFv, V domains shown)
VH: QVQLVQSGAEVKKPGASVKVSCKASGYTFTSYGISWVRQAPGQGLEWMGWISAYNGNTNYAQKLQGRVTMTTDTSTSTAYMELRSLRSDDTAVYYCARGAVYFDYWGQGTLVTVSS
VL: EIVLTQSPATLSLSPGERATLSCRASQSLSRNHLAWYQQKPGQPPRLLIHWASTRESGVPDRFSGSGSGTDFTLTISSLQAEDVAVYYCQQKTQNTWTFGQGTKVEIK
notes: VH of BC31M4: as the variable region of the heavy chain of m6 (PDB 7WN8) with A instead of T at residue 108 of HCDR3 (IMGT numbering); scFv linker; VL of BC31M4 (as the variable region of the light chain of m6, PDB 7WN8) with H107 (LCDR3, IMGT numbering) changed; also called H107K
B8: binds [2].

B9: BC31M4 (phage-scFv form) with VL H38 replaced by lysine (scFv, V domains shown)
VH: QVQLVQSGAEVKKPGASVKVSCKASGYTFTSYGISWVRQAPGQGLEWMGWISAYNGNTNYAQKLQGRVTMTTDTSTSTAYMELRSLRSDDTAVYYCARGAVYFDYWGQGTLVTVSS
VL: EIVLTQSPATLSLSPGERATLSCRASQSLSRNKLAWYQQKPGQPPRLLIHWASTRESGVPDRFSGSGSGTDFTLTISSLQAEDVAVYYCQQHTQNTWTFGQGTKVEIK
notes: VH of BC31M4: as the variable region of the heavy chain of m6 (PDB 7WN8) with A instead of T at residue 108 of HCDR3 (IMGT numbering); scFv linker; VL of BC31M4 (as the variable region of the light chain of m6, PDB 7WN8) with H38 (LCDR1, IMGT numbering) changed; also called H38K
B9: binds [2].

B10: BC31M4 (hIgG1 form) (antibody, V domains shown)
VH: QVQLVQSGAEVKKPGASVKVSCKASGYTFTSYGISWVRQAPGQGLEWMGWISAYNGNTNYAQKLQGRVTMTTDTSTSTAYMELRSLRSDDTAVYYCARGAVYFDYWGQGTLVTVSS
VL: EIVLTQSPATLSLSPGERATLSCRASQSLSRNHLAWYQQKPGQPPRLLIHWASTRESGVPDRFSGSGSGTDFTLTISSLQAEDVAVYYCQQHTQNTWTFGQGTKVEIK
notes: VH of BC31M4: as the variable region of the heavy chain of m6 (BC31M5, PDB 7WN8) with alanine instead of threonine at residue 108 of HCDR3 (IMGT numbering); constant region of the human IgG1 heavy chain (from the expression vector); VL of BC31M4: as the variable region of the light chain of m6 (BC31M5, PDB 7WN8); only one amino acid (heavy chain 108) differs between the two antibodies; constant …
B10: binds [7]; binds [8].

B11: BC31M4 (hIgG1 form) with the 38R/55R substitution (antibody, V domains shown)
VH: QVQLVQSGAEVKKPGASVKVSCKASGYTFTSYGISWVRQAPGQGLEWMGWISAYNGNTNYAQKLQGRVTMTTDTSTSTAYMELRSLRSDDTAVYYCARGAVYFDYWGQGTLVTVSS
VL: EIVLTQSPATLSLSPGERATLSCRASQSLSRNRLAWYQQKPGQPPRLLIRWASTRESGVPDRFSGSGSGTDFTLTISSLQAEDVAVYYCQQHTQNTWTFGQGTKVEIK
notes: as for B3
B11: binds [3].

Reference: PMC9844003, “A pH-dependent anti-CD47 antibody that selectively targets solid tumors and improves therapeutic efficacy and safety” (Journal of Hematology & Oncology, 2023)
